Laboratory results: PMC13246001, “Membrane binding controls the ATPase cycle and localization of MinD in Bacillus subtilis” (eLife, 2026)

What was measured:
[1] = biological target: His-MinD (B. subtilis MinD, N-terminally His-tagged) (B. subtilis) (UniProt Q01464)
[2] = substrate: Nc1ncnc2c1ncn2[C@@H]1O[C@H](COP(=O)(O)OP(=O)(O)OP(=O)(O)O)[C@@H](O)[C@H]1O; test: EnzChek phosphate release assay; format: biochemical, Bacillus subtilis; settings: 10 µM MinD, E. coli total lipid liposomes 0.2 mg/ml, Mg2+, 37 °C, HEPES-KOH pH 7.2 protein/liposome buffer
[3] = biological target: the molecule itself; test: SEC; Superdex200 Increase 10/300 GL, 0.75 ml/min, buffer C (50 mM HEPES-KOH, 150 mM KCl, 10% glycerol, 0.1 mM EDTA, pH 7.2) with 0.4 mM TCEP and 0.2 mM Mg2+-ADP; column calibrated with a gel filtration standard

His-PDZ (soluble C-terminal PDZ domain of B. subtilis MinJ with N-terminal His-tag) (from UniProt O34375 1-397) (domain or fragment)
relative ATPase activity (EnzChek phosphate release) of 6 µM His-MinD in the presence of 1, 3 and 5 µM His-PDZ, 0.2 mg/ml liposomes, 2 mM Mg2+-ATP; His-MinD alone = 1; highest value at 3 µM (relative activity) [1]: 1.37

B1: His-MinD (Bacillus subtilis subsp. subtilis str. 168) (protein)
chain: MGEAIVITSGKGGVGKTTTSANLGTALAILGKRVCLVDTDIGLRNLDVVMGLENRIIYDLVDVVEGRCKMHQALVKDKRFDDLLYLMPAAQTSDKTAVAPEQIKNMVQELKQEFDYVIIDCPAGIEQGYKNAVSGADKAIVVTTPEISAVRDADRIIGLLEQEENIEPPRLVVNRIRNHLMKNGDTMDIDEIVQHLSIDLLGIVADDDEVIKASNHGEPIAMDPKNRASIAYRNIARRILGESVPLQVLEEQNKGMMAKIKSFFGVRS
notes: full-length MinD, N-terminal His-tag kept (pET-28a NdeI/XhoI, plasmid NAP013), expressed in E. coli BL21(DE3)pLysS; monomer in ADP, dimerizes in ATPase cycle
Km [2]: 173 µM | kcat [2]: 0.01008 s⁻¹

B2: His-MinD-D40A (enzyme, B. subtilis, UniProt Q01464 1-268, looked up)
chain: MGEAIVITSGKGGVGKTTTSANLGTALAILGKRVCLVDTAIGLRNLDVVMGLENRIIYDLVDVVEGRCKMHQALVKDKRFDDLLYLMPAAQTSDKTAVAPEQIKNMVQELKQEFDYVIIDCPAGIEQGYKNAVSGADKAIVVTTPEISAVRDADRIIGLLEQEENIEPPRLVVNRIRNHLMKNGDTMDIDEIVQHLSIDLLGIVADDDEVIKASNHGEPIAMDPKNRASIAYRNIARRILGESVPLQVLEEQNKGMMAKIKSFFGVRS
notes: MinD of Bacillus subtilis 168 with D40A, made by site-directed mutagenesis of plasmid NAP013 (pET-28a-minD); Same construct as m1 but for the mutation; also called locked dimer; pET-28a-minD-D40A; source: E. coli BL21(DE3)/pLysS, purified (Ni-NTA, SEC) with Mg2+-ADP in the buffers; not shown: His-tag, N-terminal, kept
binding result [3]: binds
